From EP0665886B1 (COLD SPRING HARBOR LABORATORY, dated 2003)

B1: human CDK4 (enzyme, UniProt P11802 1-303, looked up)
chain: MATSRYEPVAEIGVGAYGTVYKARDPHSGHFVALKSVRVPNGGGGGGGLPISTVREVALLRRLEAFEHPNVVRLMDVCATSRTDREIKVTLVFEHVDQDLRTYLDKAPPPGLPAETIKDLMRQFLRGLDFLHANCIVHRDLKPENILVTSGGTVKLADFGLARIYSYQMALTPVVVTLWYRAPEVLLQSTYATPVDMWSVGCIFAEMFRRKPLFCGNSEADQLGKIFDLIGLPPEDDWPRDVSLPRGAFPPRGPRPVQSVVPEMEESGAQLLLEMLTFNPHKRISAFRALQHSYLHKDEGNPE
notes: also called PSK-J3; p33^CDK4

Biological target: T1, human cyclin D1 (human, UniProt P24385 1-295)
T1 construct: Endogenous 35 kDa protein in co-immunoprecipitations; also called p35^cyclin D1; p35
Experiment: anti-cyclin D1 immunoprecipitation

T1 sequence (P24385 whole entry): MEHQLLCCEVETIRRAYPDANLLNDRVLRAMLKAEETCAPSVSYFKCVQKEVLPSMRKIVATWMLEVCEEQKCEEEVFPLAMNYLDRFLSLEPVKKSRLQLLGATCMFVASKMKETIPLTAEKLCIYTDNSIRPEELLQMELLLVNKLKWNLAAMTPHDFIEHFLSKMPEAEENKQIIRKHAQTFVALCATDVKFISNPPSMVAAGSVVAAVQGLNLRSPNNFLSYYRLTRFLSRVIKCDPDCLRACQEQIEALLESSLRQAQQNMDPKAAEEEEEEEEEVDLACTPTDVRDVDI

| Molecule | share of cyclin D1-associated protein lost in RIPA buffer (0.1% SDS) against NP40 (0.5%) buffer [%] |
| --- | --- |
| p21 (polypeptide of 21 kDa apparent molecular weight) | > 90 |
| B1 | > 90 |
